Results as given in the supplement of paper PMC9170038.

Columns and labels:
MS2 coat protein [1] = assay: apparent KD of MS2 coat protein, switch OFF state (with FMN for OFF switches, without FMN for ON switches); designed switch direction (-1 OFF switch, 1 ON switch): 1; higher = weaker reporter binding; conditions: FMN input: 0 or 200 uM; Eterna round: R93 (includes R88 designs)
In short: (§1)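 The buffer was 100 mM Tris-HCl pH 7.5 with 80 mM KCl and 4 mM MgCl2, used without or with constant ligand. In it, RNA switches transcribed on-chip from Illumina sequencing clusters were titrated with SNAP-549-labelled MS2 coat protein in twofold steps from 0.7 or 1.5 nM to 3 µM. Apparent KD for each design is the median of its normalised cluster binding-curve fits.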

MS2 coat protein [2] = assay: apparent KD of MS2 coat protein, switch ON state; designed switch direction (-1 OFF switch, 1 ON switch): 1; higher = weaker reporter binding; conditions: FMN input: 0 or 200 uM; Eterna round: R93 (includes R88 designs)
In short: as §1

Sequence | apparent KD of MS2 coat protein (MS2 coat protein [1]) [nM] | apparent KD of MS2 coat protein (MS2 coat protein [2]) [nM]
GAAAAACAUGAGGAUCACCCAUGUGAGAAUAUGGGAGGAUAUACGAAGACGAGAGUCGAAGUAGAAGGCCUAAAAG [Mat - Same State 1 - Eli mod - 31] | 119 | 28.2
GAAAAACAUGAGGAUCACCCAUGUGAGAUAAACACAGGAUAUGCGAAAAGAAACAAAUAAGCAGAAGGGUGAAAAG [Mat - Same State 1 - Tesla mod - 81] | 282 | 44.1
GAAAAACAUGAGGAUCACCCAUGUGAUAAUAUGGGAGGAUAUACAAAGACGAAAGUCAAAGUAGAAGGCCUAAAAG [Garnet 35] | 73.2 | 40.5
GAAAAACAUGAGGAUCACCCAUGUGGAAAUAUGGGAGGAUAUACUAUGACGAAAGUCAAAGUAGAAGGCCUGAUAG [JL S1 M-MoE mod 5 In the Read] | 124 | 24.7
GAAAAACAUGAGGAUCACCCAUGUGUAAACAUGGGAGGAUAUACAAAGACGUAAGUCAAAGUAGAAGGCCUAAGAG [Garnet 37] | 15.3 | 128
GAAAAACAUGAGGAUCACCCAUGUGUAAAUAUGGAAGGAUAUACAAAGACGAAAGUCAAAGUAGAAGGUCUAAAAG [Mat - Same State 1 - Eli mod - D16] | 28.9 | 23.5
GAAAAUAAAAGACAGGAUAUCCAAAAGAAAACAUGAGGAUCACCCAUGUAAAGAAAAUAAAAAUGGGAGAAGGGUCAAAUAAAAG [Mat - Same State 2 - JL mod - D52] | 56.6 | 64.8
GAAGACAUAGUUCAGGAUAUAGGAAUAGUCACAUGAGGAUCACCCAUGUGCAUUUAUAUGCGCGCUUAGAAGGGAGGUAGAUAUA [SameState2 Malc#20] | 20.8 | 23.8
GACAGACAUGAGGAUCACCCAUGUACAAACGUACAAGGAUAUGUGUGGAAACCGUACUAUACAGAAGGUGUCUGUC [SS1 - 90] | 90.3 | 126
GACGAACAUGAGGAUCACCCAUGUCAAAACGGACAAGGAUAUGUGUGGAAACCGUACUAUACAGAAGGUGUCUGUC [SS1 - 98] | 21.3 | 16.1
GACUGCGAUGUGAAGGAUAUCCGCGACUGGACAUGAGGAUCACCCAUGUAUGCUUAGAACAUGCCGGAGAAGGUCACGAAUGAUU [JR_SS002_Sub1217] | 32.3 | 20.6
GAGAAGAAGAGAGAGGAUAUCCAAAGGAAAACAUGAGGAUCACCCAUGUAAAAGGUAGGAAAUUGGGAGAAGGCUCAGAAGAGGG [salish99-ss2-030] | 26.6 | 23.2
GAGAUACAUGAGGAUCACCCAUGUUGAAAUAUGGGAGGAUAUACAAGGUCGAAAGAUAAGGUAGAAGGCCUAAAAG [LROPPY Same State 1 - v03_deltaG=1.1] | 176 | 39.1
GAGCCGCGGGCACAGGAUAUGCUCGGGCAAACAUGAGGAUCACCCAUGUGCGGCCUAAAUACGACGCAGAAGGGUGCUGGUGUGU [Orxeis] | 147 | 44
GAGGACAUAGUAUAGGAUAUAUGAAUAAUUACAUGAGGAUCACCCAUGUCCAUUUAUAUGGGAACAUAGAAGGGUGGUAGUUAUC [SameState2 Malc#33] | 202 | 102
GAGGACCUAGGAUAGGAUAUAUGAAUAAUUACAUGAGGAUCACCCAUGUCCAUUUAUAUGGGAACAUAGAAGGGUUGUGGUUAUC [SameState2 Malc#36] | 178 | 147

Sequence | apparent KD of MS2 coat protein (MS2 coat protein [1]) [nM] | apparent KD of MS2 coat protein (MS2 coat protein [2]) [nM]
GAGGACCUAGGAUAGGAUAUGUGAAAAAUUACAUGAGGAUCACCCAUGUCCAUUUAUAUGGGAACAUAGAAGGGUUCUGGUUAUC [Mat - Same state - Malcolm Mod - D150] | 61.6 | 35.7
GAUAAACAUGAGGAUCACCCAUGUAGAAAUAUGGGAGGAUAUACAAAGACGAUAGUCAAAGUAGAAGGCCUAAAAG [77%, Mat - Mod of Eli - With 2 more U's] | 85.9 | 24.8
GAUAAACAUGAGGAUCACCCAUGUAGAUAUAUGGGAGGAUAUACAUAGACGAUAGUCAUAGUAGAAGGCCUAAUAG [77%, Mat - Mod of Eli - With 6 more U's] | 119 | 35.6
GAUUACAUAGUUCAGGAUAUAUGAAUAGUCACAUGAGGAUCACCCAUGUCCAUUUAUAUGGGCACAUAGAAGGGAGGUAGGGAUC [Mat - Same state - Malcolm Mod - D148] | 571 | 392
GCAGGGCUAAACUAGGAUAUGGGUGUCUAGACAUGAGGAUCACCCAUGUGAUGGCAAAACAAAGCUCAGAAGGAGUGGUAGCCCA [Quendi] | 75.4 | 11.9
GCUCCAGCUAGCAAGGAUAUGUAGGAUGCUACAUGAGGAUCACCCAUGUGCUGAAAUAAGUCCCGGCAGAAGGUGUGACUGGAGC [Quleorla] | 19.9 | 13.8
GCUGGGCUACACUAGGAUAUGGGUGUCUAAACAUGAGGAUCACCCAUGUGAUGGCAAAACAAAGCUCAGAAGGAGUCGUAGCCCA [Inrionarus] | 22.3 | 14.7
GGAAGACAUGAGGAUCACCCAUGUGGGAAUAUGGGAGGAUAUACAAAGACGAGAGUCAGAGUAGAAGGCCUAGGAG [salish99-ss1-101] | 106 | 68.2
GGAUAUAUACAGGAGGAUAUGAGAACAAAGACAUGAGGAUCACCCAUGUACAAAAGGUGGAACAAUCAGAAGGUCUAAACAACAAA [Thing 1 and Thing 2] | 49.7 | 61
GGCUGCGUUGUGAAGGAUAUCCGCGUCUGGACAUGAGGAUCACCCAUGUAUACUUGGAUCGUGCAGGAGAAGGUCAAGGGUGAUU [JR_SS002_Sub1211] | 63.3 | 130
GGGAAUAAAAGAGAGGAUAUCCAAAGGAAAACAUGAGGAUCACCCAUGUAAAAGGAAGGAAAUUGGGAGAAGGCUCAAGAUAGGG [salish99-ss2-012] | 26.1 | 29.4
GGGAGACAUGAGGAUCACCCAUGUGAGAAGAGGCGAGGAUAUCGAAAGAAAGAAGAGAAACGAGAAGGCGCGAGAG [salish99-SS1-057] | 59.8 | 48
GGGAGACAUGAGGAUCACCCAUGUGAGAAGAGGCGAGGAUAUCGAAAGAAAGAAGAGAAACGAGAAGGCGCGAGCG [salish99-SS1-060] | 86.7 | 32.5
GGGAGGAAGAGAGAGGAUAUCCAAAGGAAAACAUGAGGAUCACCCAUGUAAAAGGUAGGAAAUUGGGAGAAGGCUCAAAAGACGG [salish99-ss2-047] | 52.5 | 28.1
GGGAGGAAGAGAGAGGAUAUCCAAAGGAAAACAUGAGGAUCACCCAUGUAAAAGGUAGGAAAUUGGGAGAAGGCUCAAAAGAGGA [salish99-ss2-039] | 30.3 | 31.3
GUAAAACAUGAGGAUCACCCAUGUAGAAAUAUGGGAGGAUAUACGAAGACGAAAGUCAAAGUAGAAGGCCUAAAGU [Mat - Same State 1 - Eli mod - D111] | 54.9 | 26.1
